Patent US20210380977, “MYOCARDIAL ENHANCER RNA AND METHODS OF USE” (THE TRUSTEES OF INDIANA UNIVERSITY, published 2021)

Tests used:
CTCF [1] = target: T1, CTCF (UniProt P49711 P49711:1-727); test: EMSA; 200 ng CTCF, 10 mM HEPES pH 7.3, 10 mM NaCl, 1 mM MgCl2, 5 ug tRNA, RT; conditions: tags: Abnova H00010664-P01; label: 5' biotin on the reverse complementary strand
T1 sequence: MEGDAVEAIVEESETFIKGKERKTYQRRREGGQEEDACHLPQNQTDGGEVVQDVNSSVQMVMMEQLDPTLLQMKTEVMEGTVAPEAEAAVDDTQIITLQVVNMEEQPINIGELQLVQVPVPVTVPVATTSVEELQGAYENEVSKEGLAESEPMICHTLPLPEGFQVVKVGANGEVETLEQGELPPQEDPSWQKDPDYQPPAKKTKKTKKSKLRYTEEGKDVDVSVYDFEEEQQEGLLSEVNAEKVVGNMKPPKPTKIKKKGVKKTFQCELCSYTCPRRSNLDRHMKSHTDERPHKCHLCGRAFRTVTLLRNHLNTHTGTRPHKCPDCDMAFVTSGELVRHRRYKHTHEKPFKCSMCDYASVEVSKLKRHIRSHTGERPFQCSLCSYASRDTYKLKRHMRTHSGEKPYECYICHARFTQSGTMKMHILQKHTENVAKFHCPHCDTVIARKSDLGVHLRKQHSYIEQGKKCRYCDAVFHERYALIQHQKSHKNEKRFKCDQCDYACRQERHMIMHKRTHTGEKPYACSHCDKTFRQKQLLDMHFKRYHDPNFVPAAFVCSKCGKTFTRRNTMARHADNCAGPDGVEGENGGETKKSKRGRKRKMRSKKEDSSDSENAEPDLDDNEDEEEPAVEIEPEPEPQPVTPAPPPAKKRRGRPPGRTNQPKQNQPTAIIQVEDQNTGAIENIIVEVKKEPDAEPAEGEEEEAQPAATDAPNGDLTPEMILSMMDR
Experimental: (§1) All these biotin-labelled probes were incubated with 200 ng CTCF recombinant proteins (H00010664-P01, Abnova) in 20 μl 1× binding buffer (10 mM HEPES-KOH, pH 7.3, 10 mM NaCl, 1 mM MgCl₂, 1 mM DTT) with 5 μg tRNA carrier at room temperature for 30 min. The reactions were then loaded onto 6% Novex TBE gels (EC6265BOX, Thermo Fisher Scientific) and transferred to Bright Star-Plus positive charged membrane (AM10110, Thermo Fisher Scientific). Biotin-labeled probes were detected by Chemiluminescent Nucleic Acid Detection Module (89880, Thermo Fisher Scientific) using Odyssey Imaging System (LI-COR).
(§2) We next asked whether Brg1 or its associated factor could bind to Uhrt-eDNA hybrid. We first investigated the role in eDNA looping of CCCTC-binding factor (CTCF), a regulator protein essential for chromatin looping and three-dimensional structure formation. CTCF contains 11 highly conserved zinc finger domains, capable of binding to specific double-stranded DNA sequence to cause chromatin looping. We found a CTCF consensus binding motif (AGGGGGTGG; SEQ ID NO: 43) on eDNA near the conserved MEF2A and GATA4 sites. ChIP analysis of heart tissues verified CTCF was enriched on eDNA region in E13.5 hearts, whereas its occupancy on eDNA dropped by 42% in normal adult hearts, but was increased by 81% and restored to fetal levels by TAC, while CTCF protein levels remained unchanged. […]

CTCF [2] = target: T1, CTCF; test: EMSA; mutation disrupted CTCF binding; conditions: tags: Abnova H00010664-P01; label: 5' biotin
Experimental: as §1, §2

Row | Binder | binding result (CTCF [1]) | binding result (CTCF [2])
1 | eDNA CTCF site dsDNA probe (dsDNA) DNA 1: GGTCAGCCACACAACAGAGGGGGTGGCACAGCTCTTGGGA DNA 2: TCCCAAGAGCTGTGCCACCCCCTCTGTTGTGTGGCTGACC | binds | –
2 | mutant CTCF site dsDNA probe (dsDNA) DNA 1: GGTCAGCCACACAACAGAAAAAATGGCACAGCTCTTGGGA DNA 2: TCCCAAGAGCTGTGCCATTTTTTCTGTTGTGTGGCTGACC | – | no binding
